Results from article PMC11962113, “An unusual glycerol-3-phosphate dehydrogenase in Sulfolobus acidocaldarius elucidates the diversity of glycerol metabolism across Archaea” (Communications Biology, 2025).

Tests used:
Saci_1118 (G3PDH) = target: T1, Saci_1118 (G3PDH) (Sulfolobus acidocaldarius, UniProt Q4J9Q8); test: absorption spectrum of bound FAD, […] nm, after SDS denaturation; type: binding; details: two FAD per homodimer; non-covalent per family; reduced by G3P at 70 °C
T1 construct: full length, N-terminal His tag (pET15b), E. coli Rosetta (DE3); homodimer with 2 FAD; without CoxG

Saci_2032 (G3PDH) = target: T2, Saci_2032 (G3PDH) (Sulfolobus acidocaldarius, UniProt Q4J7A2); test: as above; type: binding; details: two FAD per homodimer; non-covalent per family; reduced by G3P at 70 °C
T2 construct: full length, N-terminal His tag (pET15b), E. coli Rosetta (DE3); homodimer with 2 FAD; without CoxG

purified protein [1] = substrate: COC1=C(OC)C(=O)C(CC=C(C)C)=C(C)C1=O; test: purified protein; type: biochemical, Sulfolobus acidocaldarius; details: 0.4 mM G3P, no DCPIP, 50 mM HEPES-KOH pH 6.5, 100 mM KCl, 70 °C
purified protein [2] = substrate: O=P(O)(O)OC[C@H](O)CO; test: purified protein; type: biochemical, Sulfolobus acidocaldarius; details: 0.06 mM DCPIP as electron acceptor, 50 mM HEPES-KOH pH 6.5, 100 mM KCl, 70 °C
[3] = target: the molecule itself; test: SEC; Superose 6 Increase 10/300 GL, 50 mM TRIS-HCl pH 7.5, 250 mM NaCl; GKs 50 µg in 200 µL, G3PDHs 19 mg Saci_2032 or 6 mg Saci_1118 in 500 µL; calibrated with LMW and HMW gel filtration kits; native mass compared with subunit mass
purified protein [4] = substrate: OCC(O)CO; test: purified protein; type: biochemical, Sulfolobus acidocaldarius
purified protein [5] = substrate: Nc1ncnc2c1ncn2[C@@H]1O[C@H](COP(=O)(O)OP(=O)(O)OP(=O)(O)O)[C@@H](O)[C@H]1O; test: purified protein; type: biochemical, Sulfolobus acidocaldarius; details: 2 mM glycerol
[6] = 5 mM ATP, 5 mM MgCl2, 0.1 M MOPS-KOH pH 6.5, 50 °C
[7] = 1 mM ATP, 1 mM MgCl2, 0.1 M TRIS-HCl pH 7, 50 °C

Cc1cc2nc3c(=O)[nH]c(=O)nc-3n(C[C@H](O)[C@H](O)[C@H](O)COP(=O)(O)OP(=O)(O)OC[C@H]3O[C@@H](n4cnc5c(N)ncnc54)[C@H](O)[C@@H]3O)c2cc1C [FAD]
absorption spectrum of bound FAD, 450 nm, after SDS denaturation (Saci_1118 (G3PDH)): a FAD content of two per homodimer was determined for both enzymes
absorption spectrum of bound FAD, 450 nm, after SDS denaturation (Saci_2032 (G3PDH)): a FAD content of two per homodimer was determined for both enzymes

B1: glycerol-3-phosphate dehydrogenase Saci_2032 (His-tagged, recombinant) (enzyme, S. acidocaldarius DSM 639, UniProt Q4J7A2 1-431, looked up)
chain: MEIKTSVLVIGGGANGLFTALDLALRGIDVTLVERRDIGSGTSGRFHGLLHSGARYAVTDPESAKECIQENNIISKIAPHAIRDTGGLFLGITKEDLEFLDKFLSSLKKLGIEHKIVDNNQVLQEEPYVNKDLKIAIWVPDKVVYGYDLLSSIAVTGSLNKARIMTYNEVTEFIRDGNSIKGVKVFDKITNQMNLIKSDIIINTSGPWAFKIITMAGLEEIPILPTAGIMAVFGKKVNNAVLNRLRPPSDGDIIVPYQDTSILGTTATIIEDPDNFTISDEDVKMLIKEGSQLVPELSKTRVIRTYASVRPLMRTSEDGRKASRDFTILDHEREDGVSGLISIIGGKFTTSRLVGEKVGDLVSEKLGVRAKSKTKETKLISPSEIDFEKYLEKIGISKIFLKSVMERRGSLDEERYKTVLYLLLSLIARGR
notes: GlpA-like FAD-dependent glycerol-3-phosphate dehydrogenase Saci_2032 of Sulfolobus acidocaldarius DSM 639, calculated mass 47.6 kDa; ORF amplified from genomic DNA; also called G3PDH; GlpA-like; source: E. coli Rosetta (DE3), pET15b-saci_2032, purified (Nickel-IDA)
Km (purified protein [1]): 179 ± 75 µM
Vmax (purified protein [1]): 21.1 µmol/min/mg
kcat/Km (purified protein [1]): 128000 ± 58900 M⁻¹ s⁻¹
Km (purified protein [2]): 55 ± 9 µM
Vmax (purified protein [2]): 44.5 µmol/min/mg
kcat/Km (purified protein [2]): 642000 ± 111000 M⁻¹ s⁻¹
stoichiometry N [3]: 2

B2: glycerol kinase Saci_2033 (enzyme, S. acidocaldarius DSM 639, UniProt Q4J7A3 1-497, looked up)
chain: MAEKYVIAIDEGTTSARAIVFDKELNILGIGQNEFTQYYPQPGYVEHSPEEIWQAQLLAINKALEKAKIDRNNILSIGITNQRETTVMWDTRTGKPIYNAIVWQDRRTAPITDYLKANYLRLIKDRTGLVPDPYFSASKIKWILDNIPNAREKAEKGEIKFGTIDTYLIWKLTNGKAHVTDYSNASRTMLFNIRKLEWDREILEILNIPEAILPDVKPSSEIYGYAEILNSSIPISGDAGDQQAALFGQIAFNQGDVKCTYGTGSFILLNTGSNLVSSNDLLTTIAWGVGKGITYALEGSIFITGAAVQWFRDGLRAIDVSDEIEPLAGSVPDNGGVYFVPAFTGLGAPYWDPYARGLIIGITRGTTKAHIARAILESMAYQTMDVLGIMQRDSGIKIDALKVDGGASKNDLLMQFQADILKMKVVRPKIMETTSMGVAMLAGLSVGYWNSMDELKQKWKIDQVFEPKMDDEYREKLYSGWKEAVRRALGWAKTIGG
notes: Glycerol kinase Saci_2033 of Sulfolobus acidocaldarius DSM 639, 497 amino acids, calculated mass 55.3 kDa; ORF amplified from genomic DNA; also called GK; GlpK
Km (purified protein [4]; [6]): 24 ± 4 µM
Vmax (purified protein [4]; [6]): 88.2 µmol/min/mg
kcat/Km (purified protein [4]; [6]): 1.31e+07 ± 2.2e+06 M⁻¹ s⁻¹
Km (purified protein [5]; 0.1 M MOPS-KOH pH 6.5, 50 °C): 174 ± 19 µM
Vmax (purified protein [5]; 0.1 M MOPS-KOH pH 6.5, 50 °C): 91 µmol/min/mg
kcat/Km (purified protein [5]; 0.1 M MOPS-KOH pH 6.5, 50 °C): 485000 ± 57100 M⁻¹ s⁻¹
stoichiometry N [3]: 2

B3: glycerol kinase Saci_1117 (enzyme, S. acidocaldarius DSM 639, UniProt Q4J9R1 1-498, looked up)
chain: MSKYILAVDEGTTSARALVFDEDLNVISIAQTELTQYFPRPGYVEQNPEEIFEKQVSMIKKAVEKAKIEISQVSAIGIANQRETTIMWDSRSGRPVYNAVVWQDRRTSDITDWLKSNYLNLFKSKTGLIPDPYFSASKIKWILDNVPGVREKAERGEIKFGTVDTYLIWKLTNGKVHVTDYSNASRTMLFNIKKLEWDRDILEILEIPEAILPEVRSSSEVYGYAEPVGNIPISGDAGDQQAALFGQLGFSKGDVKCTYGTGSFILMNSGEEIYDSKDLLTTIAWKIGKDVKYALEGSIFTTGAAVQWVRDGLGLVSSSDEIESLASSVVDNGGVYFVPAFSGLGSPYWDPYARGLIIGISRGTSRGHIARAVLESIAYQVRDVIEVIKKDVGKEFVNVLKVDGGVSKNNLLMQFQADILGIRIVRPRVIETTSMGASMLAGLAVDYWSSLEELKSKWAVDREFIPSLQEDRRERLYKGWKEAVRRTIGWAREVETME
notes: Glycerol kinase Saci_1117 of Sulfolobus acidocaldarius DSM 639, 498 amino acids, calculated mass 55.6 kDa; ORF amplified from genomic DNA; The results call the protein C-terminally His-tagged; also called GK; GlpK homologue; source: S. acidocaldarius MW001, homologous overexpression (pSVAmalFX-saci_1117-SH10), purified (Strep-Tactin XT 4Flow column)
Km (purified protein [4]; [7]): 24 ± 1 µM
Vmax (purified protein [4]; [7]): 45.7 µmol/min/mg
kcat/Km (purified protein [4]; [7]): 6.4e+06 ± 507000 M⁻¹ s⁻¹
Km (purified protein [5]; 0.1 M TRIS-HCl pH 7, 50 °C): 205 ± 24 µM
Vmax (purified protein [5]; 0.1 M TRIS-HCl pH 7, 50 °C): 50.8 µmol/min/mg
kcat/Km (purified protein [5]; 0.1 M TRIS-HCl pH 7, 50 °C): 229000 ± 28400 M⁻¹ s⁻¹
stoichiometry N [3]: 2

B4: glycerol-3-phosphate dehydrogenase Saci_1118 (His-tagged, recombinant) (enzyme, S. acidocaldarius DSM 639, UniProt Q4J9Q8 1-428, looked up)
chain: MKQNSSVIVIGGGATGLFTALDLSLRGINVTLVERGDIASGTSGKFHGLLHSGARYAVNDPESAKECKQENEVLSKIAPEFVRDTGGVFVGITEDDVNYSQRFLSALNSLGITNKVMDVEELIRREPFINKKSKIAIWVPDKVVYGYDLLATVALTASLNGAKILTYNEVKRVLREGNSVRRVEVKDNISGETKILNGDIIVNTAGPWAFRVIEMAGLGEIPLLPTAGIMVVMKEKLNSMVINRLRPPSDGDIIVPYGDSSIIGTTATIIPDPDNFEISDEDINMLIEEGAYMIPRLKEVKPERAYASVRPLIKNAEDGRGATRDFMIIDHEKVDSLDGLISVIGGKFTTSRLAGEKVSDMVSEKLGIREKSKTATIKLMSELDEKLLEKKRVPKVLVKMIRERKGSLDEDRYSTAMYILLSLLARGE
notes: GlpA-like FAD-dependent glycerol-3-phosphate dehydrogenase Saci_1118 of Sulfolobus acidocaldarius DSM 639, calculated mass 46.9 kDa; ORF amplified from genomic DNA; also called G3PDH; GlpA-like; source: E. coli Rosetta (DE3), pET15b-saci_1118, purified (Nickel-IDA)
Km (purified protein [1]): 86 ± 19 µM
Vmax (purified protein [1]): 18.7 µmol/min/mg
kcat/Km (purified protein [1]): 170000 ± 39700 M⁻¹ s⁻¹
Km (purified protein [2]): 19 ± 3 µM
Vmax (purified protein [2]): 19.6 µmol/min/mg
kcat/Km (purified protein [2]): 808000 ± 131000 M⁻¹ s⁻¹
stoichiometry N [3]: 2
